Experiments:
[1] = tested on: N[C@@H](CCSC[C@H](N)C(=O)O)C(=O)O; test: steady-state kinetics of the purified enzyme, DTNB assay (Km); assay type: biochemical, Toxoplasma gondii; conditions: PLP; pH 9.0; 37.0 °C
[2] = molecular target: T1, Cystathionine γ-lyase (TgCGL) (Toxoplasma gondii, UniProt A0A125YN40); test: intrinsic fluorescence titration of apo-TgCGL (excitation […] nm, emission […] nm); assay type: binding
T1 construct: gene TGME49_312930; full-length, N-terminal His6 tag (apo-protein)

[3] = molecular target: cystathionine γ-lyase from Toxoplasma gondii (Toxoplasma gondii); test: SEC; analytical gel filtration on Superdex 200 HR 10/300 GL; 50 mM sodium phosphate buffer pH 8.5, 150 mM NaCl, 0.1 mM DTT; mass from a calibration curve
[4] = tested on: N[C@@H](CSCSC[C@H](N)C(=O)O)C(=O)O; test: steady-state kinetics of the purified enzyme, LDH-coupled assay (Km); assay type: biochemical, Toxoplasma gondii; conditions: PLP; pH 9.0; 37.0 °C
[5] = tested on: N[C@@H](CCSC[C@H](N)C(=O)O)C(=O)O; test: purified protein; assay type: biochemical, Toxoplasma gondii; conditions: PLP active site; external aldimine with PLP (modelled); pH 9.0; 37.0 °C
[6] = molecular target: T2, Cystathionine γ-lyase (TgCGL) (Toxoplasma gondii, UniProt A0A125YN40, N360S); test: UV-visible absorption titration at […] and […] nm; also substrate inhibition (Ki […]); assay type: binding
T2 construct: gene TGME49_312930; full-length, N-terminal His6 tag

[7] = molecular target: T3, Cystathionine γ-lyase (TgCGL) (Toxoplasma gondii, UniProt A0A125YN40, S77E); test: UV-visible absorption titration at […] and […] nm (no hydrolysis detected); assay type: binding
T3 construct: gene TGME49_312930; full-length, N-terminal His6 tag
T3 sequence (A0A125YN40 1-417 S77E): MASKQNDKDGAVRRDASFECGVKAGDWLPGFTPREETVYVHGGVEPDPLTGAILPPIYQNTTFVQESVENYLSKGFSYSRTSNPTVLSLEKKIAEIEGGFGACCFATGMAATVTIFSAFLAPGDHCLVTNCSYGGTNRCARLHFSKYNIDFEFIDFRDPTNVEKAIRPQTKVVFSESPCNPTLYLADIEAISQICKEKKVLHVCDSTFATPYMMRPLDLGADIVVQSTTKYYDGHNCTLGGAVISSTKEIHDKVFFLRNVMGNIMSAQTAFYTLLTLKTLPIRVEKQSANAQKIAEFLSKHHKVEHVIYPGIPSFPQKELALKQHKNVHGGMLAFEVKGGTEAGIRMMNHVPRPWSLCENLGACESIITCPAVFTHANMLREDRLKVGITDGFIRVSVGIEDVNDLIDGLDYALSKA

[8] = molecular target: T4, Cystathionine γ-lyase (TgCGL) (Toxoplasma gondii, UniProt A0A125YN40); test: UV-visible absorption titration at […] and […] nm; also substrate inhibition (Ki […]); assay type: binding
T4 construct: gene TGME49_312930; full-length, N-terminal His6 tag
T4 sequence (A0A125YN40 1-417): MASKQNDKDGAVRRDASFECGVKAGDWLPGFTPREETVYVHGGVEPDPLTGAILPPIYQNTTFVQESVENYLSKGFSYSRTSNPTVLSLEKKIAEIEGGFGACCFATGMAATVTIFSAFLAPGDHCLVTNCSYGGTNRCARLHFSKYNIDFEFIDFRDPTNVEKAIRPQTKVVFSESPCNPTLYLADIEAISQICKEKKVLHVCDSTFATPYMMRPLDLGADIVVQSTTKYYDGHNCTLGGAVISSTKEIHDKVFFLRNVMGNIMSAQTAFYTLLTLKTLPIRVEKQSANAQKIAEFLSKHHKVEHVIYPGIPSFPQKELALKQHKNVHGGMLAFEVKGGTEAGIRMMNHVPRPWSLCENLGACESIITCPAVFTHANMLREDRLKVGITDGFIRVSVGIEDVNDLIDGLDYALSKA

[9] = substrate: NCCSC[C@H](N)C(=O)O; test: steady-state kinetics of the purified enzyme, α,β-elimination (Km); assay type: biochemical, Toxoplasma gondii; conditions: PLP
[10] = substrate: N[C@@H](CSCSC[C@H](N)C(=O)O)C(=O)O; test: steady-state kinetics of the purified enzyme, LDH-coupled assay (Km); assay type: biochemical, Toxoplasma gondii; conditions: PLP; pH 9.0; 37.0 °C; remark: listed apart in the source
purified protein = substrate: N[C@@H](CCSC[C@H](N)C(=O)O)C(=O)O; test: purified protein; conditions: PLP active site; external aldimine with PLP (modelled); pH 9.0; 37.0 °C

Q: For “Cystathionine γ-lyase (TgCGL) (Toxoplasma gondii ME49; S77A)”, which Km [1] is on record?
A: The Km was 2400 ± 300 µM.

Q: And the kcat [1]?
A: The kcat was 0.7 ± 0.1 s⁻¹.

Q: And the kcat/Km [1]?
A: Its kcat/Km is 290 ± 80 M⁻¹ s⁻¹.

Q: How did the Kd [2] turn out when `Cc1ncc(COP(=O)(O)O)c(C=O)c1O` [PLP] was run?
A: Its Kd is 170 ± 40 nM.

Q: “cystathionine γ-lyase from Toxoplasma gondii (enzyme)” was tested. Which stoichiometry N [3] did it give?
A: Its stoichiometry N is 4.

Q: Which Km [4] does the source give for “Cystathionine γ-lyase (TgCGL) (Toxoplasma gondii ME49; N360S)” here?
A: The Km was 860 ± 30 µM.

Q: And the kcat [4]?
A: Its kcat is 0.19 ± 0.01 s⁻¹.

Q: And the kcat/Km [4]?
A: The kcat/Km was 220 ± 20 M⁻¹ s⁻¹.

Q: What about the Km [5] of the same molecule?
A: Its Km is 1100 ± 100 µM.

Q: And the kcat [5]?
A: Its kcat is 0.08 ± 0.01 s⁻¹.

Q: What about the kcat/Km [5] of the same molecule?
A: The kcat/Km was 73 ± 16 M⁻¹ s⁻¹.

Q: Which Kd [6] does the source give for `N[C@@H](CS)C(=O)O` [L-cysteine] here?
A: The Kd was 335 ± 15 (335 nm); 331 ± 20 (421 nm) µM.

Q: And the Kd [7]?
A: The Kd was 677 ± 180 (335 nm); 874 ± 87 (421 nm) µM.

Q: And the Kd [8]?
A: Its Kd is 306 ± 41 (335 nm); 273 ± 52 (421 nm) µM.

B1: Cystathionine γ-lyase (TgCGL) (Toxoplasma gondii ME49) (protein)
chain: MASKQNDKDGAVRRDASFECGVKAGDWLPGFTPREETVYVHGGVEPDPLTGAILPPIYQNTTFVQESVENYLSKGFSYSRTSNPTVLSLEKKIAEIEGGFGACCFATGMAATVTIFSAFLAPGDHCLVTNCSYGGTNRCARLHFSKYNIDFEFIDFRDPTNVEKAIRPQTKVVFSESPCNPTLYLADIEAISQICKEKKVLHVCDSTFATPYMMRPLDLGADIVVQSTTKYYDGHNCTLGGAVISSTKEIHDKVFFLRNVMGNIMSAQTAFYTLLTLKTLPIRVEKQSANAQKIAEFLSKHHKVEHVIYPGIPSFPQKELALKQHKNVHGGMLAFEVKGGTEAGIRMMNHVPRPWSLCENLGACESIITCPAVFTHANMLREDRLKVGITDGFIRVSVGIEDVNDLIDGLDYALSKA
notes: full-length, N-terminal His6 tag
Q: Which results are given for B1?
A: Km [9]: 1300 ± 100 µM; Km [10]: 510 ± 10 µM; kcat [10]: 0.24 ± 0.01 s⁻¹; kcat/Km [10]: 470 ± 30 M⁻¹ s⁻¹; Km (purified protein): 900 ± 100 µM
